This passage reports Kd results from article PMC10543557.

The term Kd denotes the free concentration of one partner at which half of the binding sites on the other are occupied at equilibrium, for simple one-to-one binding.

The assay concerns the target FAM-labeled recombinant full-length SARS-CoV-2 Nsp1 (SARS-CoV-2-Nsp1_C-51-V) (SARS-CoV-2) (UniProt P0DTD1). Put plainly: fluorescence polarisation. (In general: Fluorescence polarisation rises when a labelled molecule tumbles more slowly, as on binding a larger partner.)

As for “40S ribosomal subunit purified from rabbit reticulocyte lysate (from UniProt G1TNM3 1-243; G1SWM1 1-292) (complex)”, the equilibrium dissociation constant (Kd) was 30 nM.
